Results as given in the DeepSol protein solubility set.

Test: soluble on expression in E. coli; label from the status in PepcDB or PDB records

| Sequence | soluble on expression in E. coli |
| --- | --- |
| MKKWKVRSALVALIVLLAGCSSNAQYNSSASGNVGTAWGGDVHSTVQGVSAERAWRDPAEMIVISYSTNVPSGYDRVYSIRINELEYAIRDGNFNSLPITRVYDSSNNEPRYIVHARVGMNYQLYVRNYSRNTNYEIVATVDGLDVLNGKQGSLNNNGYIVNAGDSLAIKGFRKDKHTEAAFQFANVADSYAANSAQGDVRNTGVIGFAAFELQGQAQNALPPCSGQAFPADNNGYAPPPCRK | not soluble |
| MAEKPHMNLVVIGHVDHGKSTLVGHLLYRLGYIEEKKLKELEEQAKSRGKESFKFAWILDKMKEERERGITIDLTFMKFETKKYVFTIIDAPGHRDFVKNMITGASQADAAILVVSARKGEFEAGMSTEGQTREHLLLARTMGIEQIIVAVNKMDAPDVNYDQKRYEFVVSVLKKFMKGLGYQVDKIPFIPVSAWKGDNLIERSPNMPWYNGPTLVEALDQLQPPAKPVDKPLRIPVQNVYSIPGAGTVPVGRVETGVLRVGDKVVFMPPGVVGEVRSIEMHYQQLQQAEPGDNIGFAVRGVSKSDIKRGDVAGHLDKPPTVAEEFEARIFVIWHPSAITVGYTPVIHVHTASVSSRIIEIKAKLDPKTGQVVEQNPQFLKAGDAAIVRFKPVKPLVVEKFSEIPQLGRFAMRDMNRTVGIGIVTDVKPAKVDIKAK | soluble |
| MQASELTPKWYVAPVSIKDEAVVKNLKAKIQALGFNHEIVDVKVLKEREVHEEVYSLKSGKLPRSLKNTTFNKWFVLDDYRYLRVKISEKNLLGRYIYIKMIYSEDAWRIVRNFPGITGIVGSSGRGALPIPLDEKDANNLEQMLKGISINPSKRIMLTNTAIIEMDSDKFDEKFQYILKQKQAIQKPKEDEDSEIVDAEKLKEAFKKLQNSQEQDEWKEKATIIQSEQTKLDPSVLVPFLGKYEILDTDNKVEQLFEFSVGNLVEVHLTDTIHVQGQIKALYQGTVNKAVVEIELTSKTQLINLPLENLSFVEFE | soluble |
| MDISTNKANYKPAVSQAFDGQETQDGTNILILGSDQRVTQGSTDARTDTIMVVNVGNHAKKIKMVSFMRDTLINIPGYSYNDNSYDLKLNSAFNLGEQEDHHGAEYVRRALKHNFDIDIKYYVMVDFETFAEAIDTLFPNGVKIDAKFATVGGVAVDSVEVPDDLRMKNGVVPNQTIEVGEQRMDGRTLLNYARFRKDDEGDFGRTVRQQQVMSAVMSQIKDPTKLFTGSAAIGKIYALTSTNVSFPFVVKNGVSVLGSGKNGVEHVTIPENGDWVDEYDMYGGQALYIDFDKYQKTLAKLGLRLEHHHHHH | soluble |
| MEELRFNSVFDIIGPVMIGPSSSHTAGAARIGKVVRSIFGQQPDSVDIYLYESFAKTYRGHGTDIALVGGLLGMEPDDEQLSNSLEIAYEQGMEVCFIPKSEKADHPNSVKIVVSSGDRKLSVTGISIGGGNIQISELNGFKLSLSMGTPTFIVVHQDVPGMIAKVTNILSASDINISTMTVTRESKGEKAIMIIEVDQAEVGDIVMQLAEIPHIYSVNYFD | not soluble |
| MAHHHHHHMGTLEAQTQGPGSMFITFEGIDGSGKTTQSHLLAEYLSEIYGVNNVVLTREPGGTLLNESVRNLLFKAQGLDSLSELLFFIAMRREHFVKIIKPSLMQKKIVICDRFIDSTIAYQGYGQGIDCSLIDQLNDLVIDVYPDITFIIDVDINESLSRSCKNGYEFADMEFYYRVRDGFYDIAKKNPHRCHVITDKSETYDIDDINFVHLEVIKVLQMV | soluble |
| MGSDKIHHHHHHMQTSHCLWQRKLVAFTSRSERMDENWKQQLATDSYGNPVRSISNLRLIFTLDENLSQIRYDTFCQDDVCFNPLFRNVNGNKIDEESVGKIQDYLERTYRLRLTQNKVFEILKTTSSERSFNPVQEFITQETWDGQPRIATAIIDYLGAEDMPLVREQTKLWFVAAVARVFSPGCKFDNVLTLPGPQGIGKSTFFKTISGKWFNDSFSFASGDKEKVETITNGWIIEISELNGLKRANDVEAAKAFLSRCSDYMRPAYGHKVVEFMRHNVFAATTNETNFLQGDNGNRRWWIIPVKGNGHVSDWLDCLQHSVPQLWAEAYTYYRQGMKLYLSPDMEIEANEIQMQHSNILVDPIMEDIEMYLEREVPVQYASWMIPTRLAYQKGAYSEPNSTMTSLNMVCARQIIEELPNDLVRRNTSKYTSQYINRLMSMIPNWKRSKQEKVKGLHPAYCDKTGRSKHPWVRVGTPSEEVCATLPSEPELPF | not soluble |
| MQFQRARSDKQKNIRMSEIVNATINLYESLQYDKITLALIAKQLSFSRANLYKYVSTKEEIFLLIISGDIENWSKEVVKFFDKYDALSAEEFCKLWSELLYRHKRIIELFCILNTIIARNVSAEKLAAFKKQIHKDFTRTKKVVKRFFPFMSKEQLKFFIEYQMKYAVGVYPATIINDVQKKASELSGIPSNVKDFESSFSKFLMVILNGIEITI | not soluble |
| MSNKLESYRSEIVSLNHQILDLLSKRGELAQKIGEEKLKQGTRIYDPQREKEMLNDLIDSNKGPFNDNTIKQLFKEIFKASTDLQKSENEKHLYVSRKLKPEDTIVTFDNGGIIGDGNKSFVFGPCSVESFEQVEAVAKNLHAKGEKFIRGGAFKPRTSPYDFQGLGVEGLKILKQIKDKYDLNVVSEIVNPNDFEVADEYLDVFQIGARNMQNFELLKEAGRTKKPILLKRGLSATIEEFVYAAEYIASQGNQNIILCERGIRTYEKATRNTLDISAVPILKQGTHLPVMVDVTHSTGRKDIMLPTAKAALAVGADGVMAEVHPDPSVALSDAGQQMDLDEFQAFYDELKPLADLYNAKKLK | not soluble |
| MGSDKIHHHHHHMPFDDIQCSPLLVRDGTDNIMQVLSDTDKPTASAQRDMPQEFLPPRCTFSAEDWRILARQWYPVARSVDVKSSPVAVTLLDLELVTYRTPAGVHVARDLCPHRGVPLSMGCVEGDELVCAYHGLRYAADGQCRKIPAQPELKPSAKFRLTVFPAVERYGLVWTCLNPQGGEANLPPMPSWGDPLCQSILPPFVDIAGSAGRQVEGFVDVAHFAFVHHDAFADRNRPEVPMYQTEFTDFGLRTEYWSNVSNYPKALQHLAPDDFSWLRVYEIYPPFCARLTVHFPNEGRLNILNAASPVSARKTRLFVPITRNFDTTGSLDDVYAFNAQIFAEDQAIVERQRPEDLPLDMQAEAHFAADRTSVGYRRLLREMGLTMAYAG | not soluble |
| MGSDKIHHHHHHMRILFYCDTVFSFGGVQRVLAEIAKALSGKHEVTILTTDTCTDLSMYGYAESTVRFDSFSYSASSFIERLLCKGYSFLYKHGLPHTRLTSEWYAASFFPSSYKRTLARKINARQCDVVIGVHAFMALHLSAVKSRIRTKTVGWLHNSYEAFFEKETPYLPGLDCFFQVQMGKLDERVVLSHADAGCFFRKMNLCCEVIYNPLTVLPKGRGKKEYRRILAVGRFSFGHKGFDILIKAFSVFVKTHPDWTLEIVGEGPEEALYRSLINEYELEKSIALHPFTKEVQEYYAHSSMYVLSSRWEGFGLVMIEAMAHGLPVIASDLPITRELLKDKDMAVLFETGNIAQLAGCMSYMADRTDWEWMGNKAVEYADTFHIEKVCDSWNNLLKKVVYGTR | not soluble |
| MGSDKIHHHHHHMTDMTYDVEQDVVAESERISAIFSEVLDIGQVAATDNFFNLGGDSFDAIRVMSRLDGNLPIVALFEHPTAETLARFRLTEESLAITRLVPLFDQTKTNGPIVVICVPYGGGDPTAYRDLFNDHPDVRVFGVDFGDAEIHSPSDFSGLINTLVNEIEAIDAEQIIVYGHCAGAATAACLASAITFTTSAVSLVVAASNPVDDPDAAIHDAAMTSDADWGQYLRSLGAFNGLTDKETDAMLTKGRRDHFIATEAYRTLARQPARGIPAMLLLGDKDPATVKVEEIVNKWRKIIDLVKSANVTGGEHYFIRTHAQEVASKVLSFQLKHK | not soluble |
| MGSDKIHHHHHHMKILRHFLNATDPCMLQQHIRSIKQDEPANLAIAFGNIDAIVHLSQATEITQLATSWVVTSSCIAAFSDIAAEDNQNHLAILQFYDPQGSYGVASKQSSIDSIIEDSQQALTLALNAANRPGELPAFIWCSQSPGLEEGLLAGIRQLVGNNVPVFGGTAADNDVSGHWCMFDGQQTITTGFIIAVLFPSTPINYFFSSGYETTRHTAIVTSASGRKLHTLNHQPAASVYNQWRTMMALPTLANGPVLAQSTFNPLGRVILDNDEQMTLLSHPAFIYGDGTMELFSEVYQGEQLTFMHGNQTLLIQRAQTVTHFATQQLHDLYDSKPLAAIVIFCAGCMLAIKNETSQVRQGVENALGNVPFIGGFTFGEQGRFADGVNRHGNLMISAIIFGHPNE | not soluble |
| SCQDLRVLNAIRDYHIGIPLTYTQYKQLTIQVLLDRLVLRRLYPLAIQICEYLRLPEVQGVSRILAHWACYKVQQKDVSDEDVARAINQKLGDTPGVSYSDIAARAYGCGRTELAIKLLEYEPRSGEQVPLLLKMKRSKLALSKAIESGDTDLVFTVLLHLKNELNRGDFFMTLRNQPMALSLYRQFCKHQELDTLKDLYNQDDNHQELGSFHIRASYAAEERIEGRVAALQTAADAFYKAKNEFAAKATEDQMRLLRIQRRLEDELGGRFLDLSLHDTVTTLILGGHNKRAEQLARDFRIPDKRLWWLKLAALADLEDWEELEKFSKSKKSPIGYLPFVEICMKQHNKHEAKKYASRVGPEQKVKALLLVGDVAQAAEVAIEHRNETELSLVLSHCTGATDGAIADKIQRARAQAQKK | soluble |
| MGSDKIHHHHHHMETMFDTLLQLPLFQGLCHEDFTSILDKVKLHFIKHKAGETIIKSGNPCTQLCFLLKGEISIVTNAKENIYTVIEQIEAPYLIEPQSLFGMNTNYASSYVAHTEVHTVCISKAFVLSDLFRYDIFRLNYMNIVSNRAQNLYSRLWDEPTLDLKSKIIRFFLSHCEKPQGEKTFKVKMDDLARCLDDTRLNISKTLNELQDNGLIELHRKEILIPDAQKLL | soluble |
| MAHHHHHHMALYIIGLGLGDERDVSVKGKELIEMSDVVYLESYTSVLFVSKNTLEEFYKKNIKEVDRNLAEENCEEILKEAINKKVSFLVVGDPLCATTHHDIILRAKKKNINVQVIHNASVMSAIGESGMQLYNFGQTVSIPYFEGNYKPTSFYDKIKVNLDNNFHTLCLLDIKVKERTIENMMKNKNIYEPSRFMTVNEAIEQLLYCEEVLKKNVITDNTRGIAIVRIGSDSQQIVSGSLLALKSVSYNDPLHSLIICAPTLHDVEREYFEMYQHRC | soluble |
| MGSDKIHHHHHHMEFIEFGYGTSTDENSLKAGAHAASDALKMMKKYSEKPNIVFLYSSPDYDPEEVLNGVKLILGNSVQIVGGSSKFQICGNKFLENGVSVGILGSKYFNTGMGVGLGISINPKESGKKAVKDAVENLGMLPKLLYVITDFCKCEEQVLKGIIEELGVTIPIFGGVSSDDFEFEHTYQYGNDVYLDSIVCVAFGGDIVPKISYNNYEYGENSGKLENIITKSEKRSIEEIGNISAVKRYIEISGYKGTVNELEKDPEFYLSHPLGILDTTGDIHLKGPISIKNKKLITGSNISNSNELKIENIDKNAIKNIFETNTSVLNNTQPHYEPALTFCNISSFLSEINPDEIEKLIEKSDINPFFGSSTFGEISLKKYGNYSMSMCSFAPDLVTISAKEGIHMFTKHPATKETLIKIHELGGSVKVEELAKSLGIHRRSAYDRIDPLLKYGFIEKDQAVIKITEFGKLLLKFEF | not soluble |
| MSGSNTAISRRRLLQGAGAMWLLSVSQVSLAAVSQVVAVRVWPASSYTRVTVESNRQLKYKQFALSNPERVVVDIEDVNLNSVLKGMAAQIRADDPFIKSARVGQFDPQTVRMVFELKQNVKPQLFALAPVAGFKERLVMDLYPANAQDMQDPLLALLEDYNKGDLEKQVPPAQSGPQPGKAGRDRPIVIMLDPGHGGEDSGAVGKYKTREKDVVLQIARRLRSLIEKEGNMKVYMTRNEDIFIPLQVRVAKAQKQRADLFVSIHADAFTSRQPSGSSVFALSTKGATSTAAKYLAQTQNASDLIGGVSKSGDRYVDHTMFDMVQSLTIADSLKFGKAVLNKLGKINKLHKNQVEQAGFAVLKAPDIPSILVETAFISNVEEERKLKTATFQQEVAESILAGIKAYFADGATLARRG | soluble |
